Data: patent US20130209454A1

Assays:
Assay in all cases: cell-based or functional assay
[1] = molecular target: Env of HIV-1 strain 6952.v1.c20 (HIV-1)
[2] = molecular target: Env of HIV-1 strain 3301.v1.c24 (HIV-1)
[3] = molecular target: Env of HIV-1 strain CNE21 (HIV-1)
[4] = molecular target: HIV-1 Env of strain 0815.v3.c3 (HIV-1)
[5] = molecular target: HIV-1 Env of strain ZM109F.PB4 (HIV-1)
[6] = molecular target: Env of HIV-1 strain X1193_c1 (HIV-1)
[7] = molecular target: HIV-1 Env of strain 1056_10_TA11_1826 (HIV-1)
[8] = molecular target: HIV-1 Env of strain 1054_07_TC4_1499 (HIV-1)
[9] = molecular target: HIV-1 Env of strain ZM247v1(Rev-) (HIV-1)
[10] = molecular target: HIV-1 Env of strain ZM53M.PB12 (HIV-1)
[11] = molecular target: Env of HIV-1 strain Ce704809221_1B3 (HIV-1)
[12] = molecular target: Env of HIV-1 strain 620345.c01 (HIV-1)
[13] = molecular target: Env of HIV-1 strain X1254_c3 (HIV-1)
[14] = molecular target: HIV-1 Env of strain 3103.v3.c10 (HIV-1)
[15] = molecular target: Env of HIV-1 strain 6480.v4.c25 (HIV-1)
[16] = molecular target: Env of HIV-1 strain Q842.d12 (HIV-1)
[17] = molecular target: Env of HIV-1 strain MS208.A1 (HIV-1)
[18] = molecular target: HIV-1 Env of strain X1632_S2_B10 (HIV-1)
[19] = molecular target: HIV-1 Env of strain TRJO4551.58 (HIV-1)
[20] = molecular target: HIV-1 Env of strain WEAU_d15_410_787 (HIV-1)
[21] = molecular target: HIV-1 Env of strain 3415.v1.c1 (HIV-1)
[22] = molecular target: HIV-1 Env of strain HIV-16055-2.3 (HIV-1)
[23] = molecular target: Env of HIV-1 strain SC422661.8 (HIV-1)
[24] = molecular target: HIV-1 Env of strain Ce2060_G9 (HIV-1)
[25] = molecular target: Env of HIV-1 strain T257-31 (HIV-1)
[26] = molecular target: Env of HIV-1 strain CNE19 (HIV-1)
[27] = molecular target: Env of HIV-1 strain Du172.17 (HIV-1)
[28] = molecular target: Env of HIV-1 strain 1394C9G1(Rev-) (HIV-1)
[29] = molecular target: Env of HIV-1 strain HIV-16055-2.3 (HIV-1)
[30] = molecular target: Env of HIV-1 strain X2131_C1_B5 (HIV-1)
[31] = molecular target: Env of HIV-1 strain ZM197M.PB7 (HIV-1)
[32] = molecular target: Env of HIV-1 strain CNE20 (HIV-1)
[33] = molecular target: Env of HIV-1 strain 6811.v7.c18 (HIV-1)
[34] = molecular target: Env of HIV-1 strain 246F C1G (HIV-1)
[35] = molecular target: HIV-1 Env of strain 6041.v3.c23 (HIV-1)
[36] = molecular target: Env of HIV-1 strain CNE5 (HIV-1)
[37] = molecular target: Env of HIV-1 strain Ce703010054_2A2 (HIV-1)
[38] = molecular target: HIV-1 Env of strain 6811.v7.c18 (HIV-1)
[39] = molecular target: HIV-1 Env of strain CNE53 (HIV-1)
[40] = molecular target: Env of HIV-1 strain Ce1172_H1 (HIV-1)
[41] = molecular target: Env of HIV-1 strain Ce0682_E4 (HIV-1)
[42] = molecular target: Env of HIV-1 strain R1166.c01 (HIV-1)
[43] = molecular target: HIV-1 Env of strain 249M B10 (HIV-1)
[44] = molecular target: HIV-1 Env of strain 246F C1G (HIV-1)
[45] = molecular target: HIV-1 Env of strain MS208.A1 (HIV-1)
[46] = molecular target: Env of HIV-1 strain Du422.1 (HIV-1)
[47] = molecular target: Env of HIV-1 strain 191084 B7-19 (HIV-1)
[48] = molecular target: HIV-1 Env of strain T251-18 (HIV-1)
[49] = molecular target: Env of HIV-1 strain R2184.c04 (HIV-1)
[50] = molecular target: Env of HIV-1 strain P0402_c2_11 (HIV-1)
[51] = molecular target: HIV-1 Env of strain 9004SS_A3_4 (HIV-1)

Sequence of NIH45-46 (antibody) (VH): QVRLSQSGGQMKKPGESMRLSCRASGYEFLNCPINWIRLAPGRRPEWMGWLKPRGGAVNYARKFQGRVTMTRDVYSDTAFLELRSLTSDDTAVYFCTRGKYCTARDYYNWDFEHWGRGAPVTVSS
Sequence of NIH45-46 (antibody) (V domain): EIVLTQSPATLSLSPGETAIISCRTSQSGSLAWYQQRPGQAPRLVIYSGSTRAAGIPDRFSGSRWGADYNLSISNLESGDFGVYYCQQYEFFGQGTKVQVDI

Substance: NIH45-46 (antibody)
- IC80 [1]: 0.07 µg/mL
- IC80 [2]: 0.033 µg/mL
- IC80 [3]: 38.1 µg/mL
- IC50, pseudovirus neutralization [4]: 0.014 µg/mL
- IC50, pseudovirus neutralization [5]: 0.095 µg/mL
- IC80 [6]: 0.064 µg/mL
- IC50, pseudovirus neutralization [7]: 0.094 µg/mL
- IC50, pseudovirus neutralization [8]: 0.113 µg/mL
- IC50, pseudovirus neutralization [9]: 2.94 µg/mL
- IC50, pseudovirus neutralization [10]: 0.175 µg/mL
- IC80 [11]: 0.88 µg/mL
- IC80 [12]: > 50 µg/mL
- IC80 [13]: 0.107 µg/mL
- IC50, pseudovirus neutralization [14]: 1.77 µg/mL
- IC80 [15]: 0.1 µg/mL
- IC80 [16]: 0.073 µg/mL
- IC80 [17]: 0.6 µg/mL
- IC50, pseudovirus neutralization [18]: 0.07 µg/mL
- IC50, pseudovirus neutralization [19]: 0.04 µg/mL
- IC50, pseudovirus neutralization [20]: 0.005 µg/mL
- IC50, pseudovirus neutralization [21]: 0.022 µg/mL
- IC50, pseudovirus neutralization [22]: 0.02 µg/mL
- IC80 [23]: 0.13 µg/mL
- IC50, pseudovirus neutralization [24]: 0.058 µg/mL
- IC80 [25]: 1.38 µg/mL
- IC80 [26]: 0.37 µg/mL
- IC80 [27]: > 50 µg/mL
- IC80 [28]: 0.38 µg/mL
- IC80 [29]: 0.06 µg/mL
- IC80 [30]: 0.88 µg/mL
- IC80 [31]: 0.55 µg/mL
- IC80 [32]: > 50 µg/mL
- IC80 [33]: 0.113 µg/mL
- IC80 [34]: > 50 µg/mL
- IC50, pseudovirus neutralization [35]: 0.006 µg/mL
- IC80 [36]: 0.41 µg/mL
- IC80 [37]: 0.538 µg/mL
- IC50, pseudovirus neutralization [38]: 0.035 µg/mL
- IC50, pseudovirus neutralization [39]: 0.008 µg/mL
- IC80 [40]: > 50 µg/mL
- IC80 [41]: 0.155 µg/mL
- IC80 [42]: 1.21 µg/mL
- IC50, pseudovirus neutralization [43]: 0.04 µg/mL
- IC50, pseudovirus neutralization [44]: > 50 µg/mL
- IC50, pseudovirus neutralization [45]: 0.09 µg/mL
- IC80 [46]: > 50 µg/mL
- IC80 [47]: 0.07 µg/mL
- IC50, pseudovirus neutralization [48]: 1.35 µg/mL
- IC80 [49]: 0.127 µg/mL
- IC80 [50]: 0.214 µg/mL
- IC50, pseudovirus neutralization [51]: 0.18 µg/mL
